Test results taken from patent US20250145716A1 (RAKUTEN MEDICAL, published 2025).
Like-named read-outs stand apart in the source and are kept apart here. Each block holds one binder with its values, some of them ahead of it.

What was measured:
[1] = molecular target: T1, human PD-L1 expressed on cells (human, UniProt Q9NZQ7 19-290); assay: flow cytometry, PD-L1-expressing CHO cells, MFI (FITC)
T1 construct: whole, on cells; One entry covers all human PD-L1-bearing cells; also called huPD-L1 on CHO cells (CHO-hPD-L1); PD-L1 on A431 cells
T1 sequence (Q9NZQ7 19-290): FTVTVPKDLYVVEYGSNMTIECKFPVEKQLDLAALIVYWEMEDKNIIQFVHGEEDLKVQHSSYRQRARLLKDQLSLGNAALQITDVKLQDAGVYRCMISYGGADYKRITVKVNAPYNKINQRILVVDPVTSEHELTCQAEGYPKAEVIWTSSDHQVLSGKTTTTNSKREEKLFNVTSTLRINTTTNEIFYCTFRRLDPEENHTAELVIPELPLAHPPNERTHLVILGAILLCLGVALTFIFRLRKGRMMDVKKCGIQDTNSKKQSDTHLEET
Method: Wild-type (wt) Chinese hamster ovary (CHO) cells (ATCC) and CHO cells engineered to express huPD-L1 (BPS Bioscience) were seeded at 200,000 cells in 50 μL FACS buffer (PBS containing 1% FBS and 5 mM EDTA) per well of a 96-well plate. Cell viability was assessed by adding 50 μL 2×Zombie Violet (BioLegend). Dead cell controls were also prepared and 2×Zombie violet was added. After incubating 20-30 minutes at room temperature, protected from light, 150 μL FACS buffer were added to each well. The plates were centrifuged, and the supernatant was aspirated. […] The plates were incubated 30 minutes on ice, protected from light. 150 μL FACS buffer were then added to each well and the plate was centrifuged. The supernatant was removed and the cells were washed three times in 200 μL FACS buffer. […] The cells were incubated 30 minutes on ice, protected from light. 150 μL FACS buffer were then added to each well and the plate was centrifuged. Supernatant was removed and the cells were washed twice with 200 μL FACS buffer. The cells were then resuspended in FACS buffer and analyzed by CytoFLEX using the appropriate channels. After gating for whole, single, live cells, the MFI in the APC channel (or FITC channel for human control samples) was normalized to the signal from hybridoma media alone (or isotype control for human control). MFI fold over media alone was determined for each clone supernatant tested.

[2] = molecular target: T2, PD-L1-His (Acro Cat PDL-H5229) (human, UniProt Q9NZQ7 19-238); assay: SPR (Biacore 4000), antibody captured on anti-human CM4 chip, PD-L1-His analyte, 25° C.
T2 construct: also called human PD-L1 (SPR analyte); not shown: His tag
T2 sequence (Q9NZQ7 19-238 limits assumed): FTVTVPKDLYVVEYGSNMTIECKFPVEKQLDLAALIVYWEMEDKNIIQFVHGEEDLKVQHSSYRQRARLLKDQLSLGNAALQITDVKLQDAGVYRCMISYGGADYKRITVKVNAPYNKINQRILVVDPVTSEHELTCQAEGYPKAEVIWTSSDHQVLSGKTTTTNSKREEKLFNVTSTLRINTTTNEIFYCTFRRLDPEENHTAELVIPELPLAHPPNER
Method: (§1) The binding affinities of the generated antibodies to human PD-L1 were determined by surface plasmon resonance. […] PD-L1-His (Acro Cat PDL-H5229) was tested for binding in a 3-fold titration series up to 100 nM. Data were collected in HBS-P (pH 7.4) at 37° C. and 25° C.

[3] = molecular target: T2, PD-L1-His (Acro Cat PDL-H5229); assay: SPR (Biacore 4000), antibody captured on anti-human CM4 chip, PD-L1-His analyte, 37° C.
Method: as §1

6xHis-tagged huPD-L1 [4] = molecular target: T3, 6xHis-tagged huPD-L1 (human, UniProt Q9NZQ7 19-238); assay: ELISA, plate-coated 6xHis huPD-L1, OD 450 nm
T3 construct: also called human PD-L1 (RD Systems 9049-B7); extracellular domain of human PD-L1 fused to a His tag; not shown: 6xHis tag
T3 sequence (Q9NZQ7 19-238): as the sequence (Q9NZQ7 19-238 limits assumed) above
Method: (§2) Hybridoma supernatants were tested for binding to huPD-L1, cyPD-L1, and muPD-L1 by ELISA. Briefly, 30 μL 6xHis-tagged huPD-L1, cyPD-L1, or muPD-L1 (1 μg/mL in PBS) were immobilized in wells of a 96-well assay plate overnight at 4° C. After washing and blocking steps, 30 μL of antibody supernatant were added to the plate and incubated at room temperature for 1 hr. Bound human antibody was detected using horseradish peroxidase (HRP)-conjugated goat anti-human Fc (Invitrogen Cat. No. 109-035-097; diluted 1:5000) or goat anti-mouse Fc HRP (Invitrogen Cat. No. 115-035-071) as a control. Bound antibody was detected with 1-Step Ultra™ TMB-ELISA Substrate (ThermoFisher Scientific Cat. No. 34029). When the reaction was complete the reaction was stopped, and the plate was read at 450 nm.
(§3) Anti-PD-L1 antibodies, described in Example 1A and manufactured substantially as described in Example 1B, were tested for to huPD-L1 and cyPD-L1 by ELISA substantially as described in Example 1A, using 12 dilutions of antibody ranging from 1 ng/ml to 3 mg/mL.

6xHis-tagged huPD-L1 [5] = molecular target: T3, 6xHis-tagged huPD-L1; assay: ELISA, plate-coated human PD-L1 (1 µg/mL), OD 450 nm, B7 ligand specificity panel
Method: as §2
(§4) Briefly, wells of a 96-well plate (Corning 3690) were incubated with 30 μL human PD-L1 (RD Systems 9049-B7), human PD-L2 (RD Systems 9075-PL), human B7-1/CD80 (RD Systems 9050-B1), human B7-2/CD86 (RD Systems 9090-B2), human B7-H2 (RD Systems 8206-B7), or human B7-H3 (RD Systems 1949-B3), at a concentration of 1 μg/mL in PBS, overnight at 4C, to coat the wells with ligand. After washing and blocking steps, 30 μL of antibody at 8 concentrations ranging from 1 ng/mL to 3 mg/mL were added to the plate and incubated at room temperature for 1 hr. Bound human antibody was detected as described above.

[6] = molecular target: T1, human PD-L1 expressed on cells; assay: cell-based or functional assay
[7] = molecular target: T1, human PD-L1 expressed on cells; assay: flow cytometry on unstimulated A431 cells (MFI against antibody concentration)
Method: (§5) Approximately 2.5×10⁵ A431 squamous cell carcinoma cells were plated in a final volume of 50 μL FACS buffer (phosphate buffered saline, 1% fetal bovine serum, 5 mM EDTA) in 96-well plates. 50 μL 2× Zombie Violet (BioLegend) were added to each well, and the plates were incubated 20-30 minutes at room temperature, protected from light. After incubation, 150 μL FACS buffer were added to each well. The plates were centrifuged at 500×g for 5 minutes. The supernatant was removed, and the cell pellet were resuspended in 200 μL FACS buffer. The wash procedure was repeated for a total of 2-3 washes. […] After the cells were incubated with the primary anti-PD-L1 antibody 1 hour on ice, protected from light, 150 μL FACS buffer were added to each well. The plates were then centrifuged, the supernatant was removed, and the cells were resuspended in 250 μL FACS buffer three times. After the third wash, the cells were resuspended in 100 μL goat anti-human IgG-Alexa Fluor 488 secondary antibody, and incubated for 30 minutes on ice, protected from light. After 3 washes as previously described, the cells were resuspended in 200 μL FACS buffer. The cells were then analyzed using a CytoFLEX flow cytometer.

6xHis-tagged cyPD-L1 [8] = molecular target: T4, 6xHis-tagged cyPD-L1 (cynomolgus monkey, UniProt Q9NZQ7 19-238 (human entry)); assay: ELISA, plate-coated 6xHis cyPD-L1, OD 450 nm
T4 construct: The assay text says only '6xHis-tagged cyPD-L1'; also called cynomolgus PD-L1; not shown: 6xHis tag
T4 sequence (Q9NZQ7 other isoform, or with tags, fused parts or gaps): as the sequence (Q9NZQ7 19-238 limits assumed) above, with A33T, A34S, S62N, R68Q, Q82R, F173L, T185A, T192I, H215L counted along it
Method: as §2, §3

[9] = molecular target: T5, human PD-L2 (RD Systems 9075-PL) (human, UniProt Q9BQ51 20-219); assay: ELISA, plate-coated human PD-L2 (1 µg/mL), OD 450 nm, B7 ligand specificity panel
T5 sequence (looked up): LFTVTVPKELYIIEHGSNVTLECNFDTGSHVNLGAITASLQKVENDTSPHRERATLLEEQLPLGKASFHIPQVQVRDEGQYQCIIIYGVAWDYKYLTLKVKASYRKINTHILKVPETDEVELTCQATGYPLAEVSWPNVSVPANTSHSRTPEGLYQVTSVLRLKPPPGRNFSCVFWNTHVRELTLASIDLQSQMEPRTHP
Method: as §2, §4

[10] = molecular target: T1, human PD-L1 expressed on cells; assay: cell-based or functional assay; remark: listed apart in the source
[11] = molecular target: T1, human PD-L1 expressed on cells; assay: flow cytometry, CHO-hPD-L1 cells, MFI (FITC)
[12] = molecular target: T1, human PD-L1 expressed on cells; assay: flow cytometry, IFN-γ-stimulated BxPC3 cells, MFI (FITC)
6xHis-tagged huPD-L1 [13] = molecular target: T3, 6xHis-tagged huPD-L1; assay: ELISA, plate-coated 6xHis huPD-L1, OD 450 nm; remark: listed apart in the source
Method: as §2

[14] = molecular target: T1, human PD-L1 expressed on cells; assay: cell-based or functional assay; remark: listed apart in the source
[15] = molecular target: T2, PD-L1-His (Acro Cat PDL-H5229); assay: SPR (Biacore 4000) as in Example 3, conjugate captured, PD-L1-His analyte, 37° C.
Method: as §1
(§6) The binding affinities of the generated anti-PD-L1 conjugates were determined by surface plasmon resonance, as described in Example 3.

6xHis-tagged cyPD-L1 [16] = molecular target: T4, 6xHis-tagged cyPD-L1; assay: ELISA, plate-coated 6xHis cyPD-L1, OD 450 nm; remark: listed apart in the source
Method: as §2

[17] = molecular target: T1, human PD-L1 expressed on cells; assay: flow cytometry on unstimulated A431 cells, ratio of EC50 values
Method: as §5

[18] = molecular target: T1, human PD-L1 expressed on cells; assay: flow cytometry on unstimulated A431 cells, 10 conjugate concentrations
Method: as §5

[19] = molecular target: T1, human PD-L1 expressed on cells; assay: flow cytometry, IFN-γ-stimulated A431 cells, MFI (FITC)
[20] = molecular target: T2, PD-L1-His (Acro Cat PDL-H5229); assay: SPR (Biacore 4000) as in Example 3, conjugate captured, PD-L1-His analyte, 25° C.
Method: as §1, §6

EC50 [1]: 0.0457 µg/mL
Kd [2]: 18 nM
koff [2]: 0.0045 s⁻¹
kon [2]: 250000 M⁻¹ s⁻¹
Kd [3]: 27 nM
koff [3]: 0.0097 s⁻¹
kon [3]: 360000 M⁻¹ s⁻¹
EC50 (6xHis-tagged huPD-L1 [4]): 0.0399 µg/mL
EC50 (6xHis-tagged huPD-L1 [5]): 0.478 µg/mL
EC50 of luminescence (RLU), PD-1:PD-L1 Blockade Bioassay (PD-L1 aAPC/CHO-K1 cells with PD-1 Effector Jurkat NFAT-luciferase cells) [6]: 0.25 µg/mL
EC50 [7]: 0.0415 µg/mL
EC50 (6xHis-tagged cyPD-L1 [8]): 0.0306 µg/mL
EC50 [9]: 5.76 µg/mL
B1: 1P4 (antibody, V domains shown)
VH: QVQLVESGGGVVQPGRSLRLSCAASGFTFSNYGMHWVRQAPGKGLEWVSLILYDGSNKYYADSVKGRFTISRDNSKNTLYLQMNSLRAEDTAVYYCARDRVWLDVWGKGTTVTVSS
VL: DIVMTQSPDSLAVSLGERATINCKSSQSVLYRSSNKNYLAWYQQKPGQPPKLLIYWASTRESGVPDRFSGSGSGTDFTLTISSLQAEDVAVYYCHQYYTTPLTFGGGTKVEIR
notes: Recombinant full-length human antibody expressed in CHO K1 GS KO cells, with wild-type human Fc; also called anti-PD-L1 antibody 1P4; Unconj; 1P4

EC50 [1]: 0.0156 µg/mL
EC50 [11]: 0.0151 µg/mL
EC50 [12]: 0.0439 µg/mL
EC50 (6xHis-tagged huPD-L1 [13]): 0.0636 µg/mL
EC50 of luminescence (RLU), PD-1:PD-L1 Blockade Bioassay (PD-L1 aAPC/CHO-K1 cells with PD-1 Effector Jurkat NFAT-luciferase cells) [14]: 0.161 µg/mL
Kd [15]: 0.97 nM
koff [15]: 0.00038 s⁻¹
kon [15]: 390000 M⁻¹ s⁻¹
EC50 (6xHis-tagged cyPD-L1 [16]): 0.0542 µg/mL
fold potency against avelumab-IR700 [17]: ~23 fold
EC50 [18]: 0.0129 µg/mL
EC50 [19]: 0.046 µg/mL
Kd [20]: 0.26 nM
koff [20]: 5.4e-05 s⁻¹
kon [20]: 210000 M⁻¹ s⁻¹
B2: 1P9-IR700 (antibody, V domains shown)
VH: EVQLVESGGGLVQPGGSLRLSCAASGFTFSTYWMSWVRQAPGKGLEWVANIKQDGGERYYVDSVKGRFTISRDNAKSSLYLQMNSLRAEDTALYYCARLRLYSDYEDYWGQGTLVTVSS
VL: DIQMTQSPSSVSASVGDRVTITCRASQGISSWLAWYQQKPGKAPKLLIYSVSSLQSGVPSRFSGSGSGTDFTLTISSLQPEDSATYYCQQANSLPPTFGGGTKVEIK
modifications: IRDye 700DX (IR700) attached via NHS ester; sites not stated; IRDye 700DX (IR700) attached via NHS ester; sites not stated; DAR 2.5 per antibody
notes: also called 1P9-IR700 conjugate; anti-PD-L1-IR700 conjugate
EC50 of photoimmunotherapy-induced killing of A431 cells (Cell Tox Green, 128 J/cm^2) [10]: 0.0124 µg/mL
